Assays:
[1] = biological target: β-amyloid (Aβ) overexpressed in nerve cells (UniProt P05067); test: Co-IP from N2a cells, relative score
[2] = biological target: β-amyloid (Aβ) overexpressed in nerve cells (UniProt P05067); test: cell-based or functional assay

Sequence of Peptide 5 (β 1-5 fragment of SOD1), NABi (Natural Amyloid β Binder and Amyloid β aggregation inhibitor) (P00441 2-91): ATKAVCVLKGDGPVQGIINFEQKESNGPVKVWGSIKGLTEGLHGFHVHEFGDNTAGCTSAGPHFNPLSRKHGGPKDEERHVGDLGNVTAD

Substance	Binding strength with β-amyloid [1]	fluorescence recovery after photobleaching (FRAP) of Aβ in N2a cells, within 20 seconds [2]	fluorescence recovery after photobleaching (FRAP) of Aβ in N2a cells, within 90 seconds [2]
Peptide 3 (β 4-6 fragment of SOD1) (from UniProt P00441 40-114)	0		
Peptide 6 (β 5-8 fragment of SOD1) (from UniProt P00441 81-154)	0		
Peptide 2 (β 2-7/T fragment of SOD1) (from UniProt P00441 16-145)	3.5		
Peptide 5 (β 1-5 fragment of SOD1), NABi (Natural Amyloid β Binder and Amyloid β aggregation inhibitor)	1	50%	75%

Source: patent publication US20230183661A1, “BICOMPATIBLE PEPTIDEBIOCOMPATIBLE PEPTIDES FOR INHIBITION OF AGGREGATION OF B-AMYLOID PROTEIN” (Catholic University Industry Academic Cooperation Foundation, priority 2017, published 2023)
